{"source": "paper doi:10.1101/2024.12.13.628329", "about": "(bioRxiv, 2024)", "target": "the molecule itself", "test": "SEC"}
{"protein": "TNFR1^R347A death domain (domain or fragment, UniProt P19438 356-441, looked up) PATLYAVVENVPPLRWKEFVARLGLSDHEIDRLELQNGRCLREAQYSMLATWRRRTPRREATLELLGRVLRDMDLLGCLEDIEEAL", "values": [{"measurement": "stoichiometry N", "value": 2}]}
